Experimental data from patent US5726154A, “Stabilization and oral delivery of calcitonin” (University of Utah Research Foundation, priority 1996, dated 1998).

Legend:
[1] = in water at room temperature; cited from earlier work
[2] = Stability of hCT upon storage in liquid formulations (precipitate, gel or turbidity indicative of fibrillation); type: physicochemical; details: bile salts (0.5-1.0%: taurocholate, deoxycholate, glycocholate), neutral or acidic pH
Description: As used herein, "stable," "stabilizing," and similar terms refer to inhibiting the precipitation, fibrillation, or gelation of human calcitonin molecules upon storage in a liquid medium at a temperature of about 4°-25° C. Human calcitonin is considered "stable" or "stabilized" in a selected liquid medium when no precipitation, fibrillation, or gellation is detected upon storage at a temperature of about 4°-25° C. for a period of at least about 6 months.
Since hCT is highly unstable in aqueous solutions of neutral or basic pH, acidic formulations were investigated to determine whether increased stability could be obtained. […]
Samples (1-2 ml) containing 0.2-10 mg/ml of hCT in aqueous formulations were prepared and then maintained in 4 ml borosilicate vials at ambient temperature or at 4° C. […] In some cases, the concentration of unaggregated hCT was determined using reversed-phase HPLC (Waters modular system with Waters model 745 integrator, Bedford, Mass.) on a Vydac C4 column (4.6 mm×25 cm) equilibrated at a flow rate of 1 ml/min with 0.1% (v/v) trifluoroacetic acid containing 30% (v/v) acetonitrile. […] Absorbance (at 220 nm) of the eluent was recorded and processed to quantify the amount of hCT injected. […]

[3] = 5 mg/ml hCT in 0.0001%-1.0% acetic acid; could not be duplicated by the applicant; cited from earlier work
[4] = Reversed-phase HPLC analysis of unaggregated hCT in formulations; type: physicochemical; details: 0.01% acetic acid containing 1.0% SDS; 8 months of storage at ambient temperature
Description: Samples (1-2 ml) containing 0.2-10 mg/ml of hCT in aqueous formulations were prepared and then maintained in 4 ml borosilicate vials at ambient temperature or at 4° C. The samples were checked periodically for the presence of a precipitate, a gel, or turbidity, which are indicative of fibrillation. In cases of formulations in which the hCT was very unstable, changes in turbidity could be followed over time by spectrophotometry at 340 nm. T. Arvinte et al., The structure and mechanism of formation of human calcitonin fibrils, 268 J. Biol. Chem. 6415-22 (1993), hereby incorporated by reference. In some cases, the concentration of unaggregated hCT was determined using reversed-phase HPLC (Waters modular system with Waters model 745 integrator, Bedford, Mass.) on a Vydac C4 column (4.6 mm×25 cm) equilibrated at a flow rate of 1 ml/min with 0.1% (v/v) trifluoroacetic acid containing 30% (v/v) acetonitrile. Five minutes after injection of a 100 μl sample, a linear gradient of 0.67% acetonitrile/min was applied. Absorbance (at 220 nm) of the eluent was recorded and processed to quantify the amount of hCT injected.
HPLC analysis of hCT in 0.01% acetic acid or in 0.01% acetic acid containing 1.0% SDS was performed to determine the state and concentration of unaggregated hCT in such formulations. […]

For `CCCCCCCCCCCCOS(=O)(=O)[O-].[Na+]` [SDS, sodium dodecyl sulfate], which “Critical micelle concentration (CMC)” value [1] is on record?
The value was 0.24%.

With Human calcitonin [hCT] as the compound, how does the “Time to gel formation” value [2] read?
Its value is no more than 1 h.

And the “Period of stable formulation reported by EP 490549” value [3]?
The value was 8 months.

What about the “HPLC profiles and UV spectra after storage” value [4] of the same compound?
Its value is “not altered”.
